Paper PMC10783636, “Chlorophyll biosynthesis under the control of arginine metabolism” (Cell Reports, 2023)

Assays:
[1] = target: 3×FLAG-tagged ArgD (N-acetylornithine aminotransferase) of Synechocystis sp. PCC 6803 (Synechocystis sp. PCC 6803) (UniProt P73133); assay: co-IP; f.ArgD from Synechocystis cells grown with 18 mM nitrate without or with Orn (1 mM for 24 h; 100 μM for 1 h); proteins released from the anti-FLAG resin with 1% SDS instead of FLAG peptide; western blot; WT control
[2] = target: 3×FLAG-tagged ArgD (N-acetylornithine aminotransferase) of Synechocystis sp. PCC 6803 (Synechocystis sp. PCC 6803) (UniProt P73133); assay: co-IP; f.ArgD or f.AstC purified from the soluble fraction of Synechocystis strains (ΔargD or ΔcphB background; cells with nitrate, without or with 1 mM Orn for 24 h) on anti-FLAG M2 gel, eluted with 3xFLAG peptide; SDS-PAGE, stained, blotted and probed with anti-Gun4 and anti-CphB
[3] = target: ArgD-6xHis, recombinant Synechocystis ArgD (Synechocystis sp. PCC 6803) (UniProt P73133); assay: isothermal spectral shift assay; 5 nM labeled ArgD or 20 nM labeled Gun4 (Red NHS dye) titrated with a serial dilution of the unlabelled partner; 25 mM Tris, 0.1% Pluronic F-127, pH 8, 25°C; Monolith X; triplicate
[4] = target: the molecule itself; assay: native gel or EMSA; 2D blue native/SDS-PAGE of the f.ArgD anti-FLAG eluate; apparent mass on the BN gel
[5] = target: Gun4-6xHis, recombinant Synechocystis Gun4 (Synechocystis sp. PCC 6803); assay: isothermal spectral shift assay; 5 nM labeled ArgD or 20 nM labeled Gun4 (Red NHS dye) titrated with a serial dilution of the unlabelled partner; 25 mM Tris, 0.1% Pluronic F-127, pH 8, 25°C; Monolith X; triplicate
[6] = target: T1, ArgD-6xHis, recombinant Synechocystis ArgD (Synechocystis sp. PCC 6803, UniProt P73133 1-429, 2nd Generation Red NHS dye); assay: as above; conditions: both partners purified
T1 construct: N-acetylornithine aminotransferase ArgD, Synechocystis sp; PCC 6803, gene slr1022; the recombinant protein produced in E. coli is called full-length where the antibodies are described; Construct pET21a-argD; also called labeled ArgD; source: E. coli BL21 (DE3), pET21a, purified (Ni-NTA); not shown: His6, C-terminal, kept
T1 sequence (looked up): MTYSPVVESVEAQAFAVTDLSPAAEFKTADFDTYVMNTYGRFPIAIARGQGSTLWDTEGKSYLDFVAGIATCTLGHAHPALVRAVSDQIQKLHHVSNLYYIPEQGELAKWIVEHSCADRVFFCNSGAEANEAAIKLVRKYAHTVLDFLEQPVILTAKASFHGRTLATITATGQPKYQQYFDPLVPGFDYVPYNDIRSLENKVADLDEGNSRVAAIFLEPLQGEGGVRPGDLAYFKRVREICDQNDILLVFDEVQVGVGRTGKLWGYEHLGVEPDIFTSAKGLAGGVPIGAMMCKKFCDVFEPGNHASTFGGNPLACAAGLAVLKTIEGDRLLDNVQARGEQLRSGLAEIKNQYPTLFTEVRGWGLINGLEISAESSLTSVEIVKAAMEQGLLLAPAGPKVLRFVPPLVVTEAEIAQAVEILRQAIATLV

For “Gun4 protein of Synechocystis sp. PCC 6803 (native) (natural protein)”, the fold enrichment of Gun4 in the f.ArgD pull-down (Orn-treated cells against control) [1] was > 12 ×, the fold increase of f.ArgD-co-purified Gun4 (1 h feeding with 100 μM Orn against control) [1] was 6 times and the fold more Gun4 co-purified with f.ArgD (cells with 1 mM Orn for 24 h against cells without Orn) [2] was 6 times.

“Gun4-6xHis, recombinant Synechocystis Gun4 (natural protein)” showed a Kd [3] of 55.8 nM.

B1: 3×FLAG-tagged ArgD (N-acetylornithine aminotransferase) of Synechocystis sp. PCC 6803 (enzyme, UniProt P73133 1-429, looked up)
chain: T1 sequence (looked up)
notes: N-acetylornithine aminotransferase ArgD, Synechocystis sp; PCC 6803, gene slr1022; synthetic argD gene with optimised codon usage cloned into pPD-NFLAG; f.ArgD printed as 49.8 kDa; also called f.ArgD; source: Synechocystis f.argD+/ΔargD or f.argD+/ΔcphB strain (psbAII promoter), soluble fraction; not shown: 3xFLAG, N-terminal, kept
With B1 the “stoichiometry N” value [4] was 2.

B2: CphB-6xHis, recombinant Synechocystis CphB (enzyme, Synechocystis sp. PCC 6803, UniProt P73832 1-271, looked up)
chain: MPLSSQPAILIIGGAEDKVHGREILQTFWSRSGGNDAIIGIIPSASREPLLIGERYQTIFSDMGVKELKVLDIRDRAQGDDSGYRLFVEQCTGIFMTGGDQLRLCGLLADTPLMDRIRQRVHNGEISLAGTSAGAAVMGHHMIAGGSSGEWPNRALVDMAVGLGIVPEIVVDQHFHNRNRMARLLSAISTHPELLGLGIDEDTCAMFERDGSVKVIGQGTVSFVDARDMSYTNAALVGANAPLSLHNLRLNILVHGEVYHQVKQRAFPRVT
notes: cyanophycinase CphB, Synechocystis sp; PCC 6803, gene slr2001; the recombinant protein produced in E. coli is called full-length where the antibodies are described; Construct pET21a-cphB; source: E. coli BL21 (DE3), pET21a, purified (Ni-NTA); not shown: His6, C-terminal, kept
Molecule B2 has a Kd [5] of 2160 nM and a Kd [6] of 29800 ± 960 nM.

B3: cyanophycinase CphB of Synechocystis sp. PCC 6803 (native) (enzyme, UniProt P73832 1-271, looked up)
chain: B2 chain
notes: cyanophycinase CphB, Synechocystis sp; PCC 6803, gene slr2001; printed as 29.4 kDa; Migrated like a large oligomer (>200 kDa) on the BN gel; source: endogenous, Synechocystis soluble fraction
B3: binds [4].
